{"source": "paper PMC5555194", "about": "“Disease-linked mutations in factor H reveal pivotal role of cofactor activity in self-surface–selective regulation of complement activation” (The Journal of Biological Chemistry, 2017)", "binders": {"B1": {"name": "I62-CFH (recombinant human complement factor H, variant Ile-62, Tyr-402, Asp-936) (natural protein, UniProt P08603 19-1231, looked up)", "chain": "EDCNELPPRRNTEILTGSWSDQTYPEGTQAIYKCRPGYRSLGNIIMVCRKGEWVALNPLRKCQKRPCGHPGDTPFGTFTLTGGNVFEYGVKAVYTCNEGYQLLGEINYRECDTDGWTNDIPICEVVKCLPVTAPENGKIVSSAMEPDREYHFGQAVRFVCNSGYKIEGDEEMHCSDDGFWSKEKPKCVEISCKSPDVINGSPISQKIIYKENERFQYKCNMGYEYSERGDAVCTESGWRPLPSCEEKSCDNPYIPNGDYSPLRIKHRTGDEITYQCRNGFYPATRGNTAKCTSTGWIPAPRCTLKPCDYPDIKHGGLYHENMRRPYFPVAVGKYYSYYCDEHFETPSGSYWDHIHCTQDGWSPAVPCLRKCYFPYLENGYNQNYGRKFVQGKSIDVACHPGYALPKAQTTVTCMENGWSPTPRCIRVKTCSKSSIDIENGFISESQYTYALKEKAKYQCKLGYVTADGETSGSITCGKDGWSAQPTCIKSCDIPVFMNARTKNDFTWFKLNDTLDYECHDGYESNTGSTTGSIVCGYNGWSDLPICYERECELPKIDVHLVPDRKKDQYKVGEVLKFSCKPGFTIVGPNSVQCYHFGLSPDLPICKEQVQSCGPPPELLNGNVKEKTKEEYGHSEVVEYYCNPRFLMKGPNKIQCVDGEWTTLPVCIVEESTCGDIPELEHGWAQLSSPPYYYGDSVEFNCSESFTMIGHRSITCIHGVWTQLPQCVAIDKLKKCKSSNLIILEEHLKNKKEFDHNSNIRYRCRGKEGWIHTVCINGRWDPEVNCSMAQIQLCPPPPQIPNSHNMTTTLNYRDGEKVSVLCQENYLIQEGEEITCKDGRWQSIPLCVEKIPCSQPPQIEHGTINSSRSSQESYAHGTKLSYTCEGGFRISEENETTCYMGKWSSPPQCEGLPCKSPPDISHGVVAHMSDSYQYGEEVTYKCFEGFGIDGPAIAKCLGEKWSHPPSCIKTDCLSLPSFENAIPMGEKKDVYKAGEQVTYTCATYYKMDGASNVTCINSRWTGRPTCRDTSCVNPPTVQNAYIVSRQMSKYPSGERVRYQCRSPYEMFGDEEVMCLNGNWTEPPQCKDSTGKCGPPPPIDNGDITSFPLSVYAPASSVEYQCQNLYQLEGNKRITCRNGQWSEPPKCLHPCVISREIMENYNIALRWTAKQKLYSRTGESVEFVCKRGYRLSSRSHTLRTTCWDGKLEYPTCAKR", "modifications": "N-glycans trimmed to the first GlcNAc residues (EndoHf)", "notes": "complement factor H (CFH), human, CCPs 1-20, allotypic variant Ile-62, Tyr-402, Asp-936; Expressed from the vector pPICZaB and secreted; also called I62,D936-CFH; IYD-CFH; source: P. pastoris KM71H, secreted, enzymatically deglycosylated, chromatographically purified"}, "B2": {"name": "S1191L/V1197A-CFH (LA-CFH, on Ile-62 background) (natural protein, human, UniProt P08603 19-1231, looked up)", "chain": "B1 chain with S1173L, V1179A", "modifications": "N-glycans trimmed to the first GlcNAc residues (EndoHf)", "notes": "complement factor H (CFH), human, CCPs 1-20, aHUS-linked double mutation S1191L/V1197A on the background Ile-62, Tyr-402, Asp-936; Expressed from the vector pPICZaB and secreted; the native signal peptide is probably absent; source: P. pastoris KM71H, secreted, enzymatically deglycosylated, chromatographically purified"}, "B3": {"name": "V62-CFH (recombinant human complement factor H, variant Val-62, Tyr-402, Glu-936) (natural protein, UniProt P08603 19-1231, looked up)", "chain": "B1 chain with I44V, D918E", "modifications": "N-glycans trimmed to the first GlcNAc residues (EndoHf)", "notes": "complement factor H (CFH), human, CCPs 1-20, allotypic variant Val-62, Tyr-402, Glu-936; Expressed from the vector pPICZaB and secreted; also called V62,E936-CFH; recombinant CFH; source: P. pastoris KM71H, secreted, enzymatically deglycosylated, chromatographically purified"}, "B4": {"name": "R53H-CFH (on Ile-62 background) (natural protein, human, UniProt P08603 19-1231, looked up)", "chain": "B1 chain with R35H", "modifications": "N-glycans trimmed to the first GlcNAc residues (EndoHf)", "notes": "complement factor H (CFH), human, CCPs 1-20, aHUS-linked mutation R53H on the background Ile-62, Tyr-402, Asp-936; Expressed from the vector pPICZaB and secreted; the native signal peptide is probably absent; also called R53-CFH; source: P. pastoris KM71H, secreted, enzymatically deglycosylated, chromatographically purified"}}, "key": {"C3b [1]": {"biological_target": "T1, C3b (human, UniProt P01024 23-667; P01024 749-1663)", "T1 construct": "Amine-coupled to the sensor chip; source: bought: Complement Technology (plasma-derived, human)", "T1 sequence (P01024 23-667, chain 1 of 2)": "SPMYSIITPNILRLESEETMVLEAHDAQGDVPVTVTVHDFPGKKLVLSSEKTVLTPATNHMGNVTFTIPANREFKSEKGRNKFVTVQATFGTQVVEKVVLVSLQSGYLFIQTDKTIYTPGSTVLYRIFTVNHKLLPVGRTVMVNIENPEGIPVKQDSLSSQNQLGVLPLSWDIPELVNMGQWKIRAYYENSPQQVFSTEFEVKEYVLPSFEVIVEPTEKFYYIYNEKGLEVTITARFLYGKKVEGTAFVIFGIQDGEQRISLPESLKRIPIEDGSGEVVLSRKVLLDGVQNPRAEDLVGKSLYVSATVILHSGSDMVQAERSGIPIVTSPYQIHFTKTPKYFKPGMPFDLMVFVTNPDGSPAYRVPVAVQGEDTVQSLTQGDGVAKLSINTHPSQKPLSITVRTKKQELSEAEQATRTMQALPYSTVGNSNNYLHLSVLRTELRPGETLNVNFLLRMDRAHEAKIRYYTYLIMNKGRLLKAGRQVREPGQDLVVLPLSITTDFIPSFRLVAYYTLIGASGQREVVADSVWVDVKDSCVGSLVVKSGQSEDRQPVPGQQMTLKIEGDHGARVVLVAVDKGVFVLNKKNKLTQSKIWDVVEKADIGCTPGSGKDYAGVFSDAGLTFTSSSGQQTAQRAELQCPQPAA", "T1 sequence (P01024 749-1663, chain 2 of 2)": "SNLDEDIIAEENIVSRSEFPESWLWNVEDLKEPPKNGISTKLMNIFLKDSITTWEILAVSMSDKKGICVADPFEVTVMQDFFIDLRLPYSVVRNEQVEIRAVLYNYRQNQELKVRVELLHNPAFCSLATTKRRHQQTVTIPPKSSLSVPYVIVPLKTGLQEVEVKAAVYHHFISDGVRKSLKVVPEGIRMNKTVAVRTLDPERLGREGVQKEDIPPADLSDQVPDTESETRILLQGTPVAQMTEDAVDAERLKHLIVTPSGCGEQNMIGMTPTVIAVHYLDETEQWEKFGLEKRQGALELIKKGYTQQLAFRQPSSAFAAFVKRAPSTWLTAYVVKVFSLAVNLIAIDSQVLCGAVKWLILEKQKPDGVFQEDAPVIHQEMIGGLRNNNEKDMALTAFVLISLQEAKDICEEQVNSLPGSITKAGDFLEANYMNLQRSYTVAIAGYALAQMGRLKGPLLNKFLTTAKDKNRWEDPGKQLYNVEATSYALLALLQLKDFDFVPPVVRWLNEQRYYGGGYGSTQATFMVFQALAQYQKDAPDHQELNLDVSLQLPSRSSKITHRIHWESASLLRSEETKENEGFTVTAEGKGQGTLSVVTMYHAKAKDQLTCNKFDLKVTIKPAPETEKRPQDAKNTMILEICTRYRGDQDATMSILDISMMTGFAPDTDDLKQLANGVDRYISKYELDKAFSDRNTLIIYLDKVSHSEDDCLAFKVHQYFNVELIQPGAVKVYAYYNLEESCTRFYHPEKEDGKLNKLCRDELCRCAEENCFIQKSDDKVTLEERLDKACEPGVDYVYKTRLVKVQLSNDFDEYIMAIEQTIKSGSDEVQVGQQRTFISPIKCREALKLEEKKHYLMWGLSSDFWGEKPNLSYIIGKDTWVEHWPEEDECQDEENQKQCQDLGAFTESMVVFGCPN", "experiment": "SPR; C3b amine-coupled to a Biacore C1 chip; dilution series of CFH (from 2.5 to 0.019 uM), preincubated with or without a 2-fold molar excess of PspCN, flowed over; Biacore T200, 25 °C, 10 mM HEPES, 150 mM NaCl, 0.05% P20; 1:1 steady-state model; three experiments on different chips", "conditions": "both partners purified"}, "C3b [2]": {"biological_target": "T1, C3b", "experiment": "SPR; C3b amine-coupled to a Biacore C1 chip; dilution series of CFH (from 2.5 to 0.019 uM), preincubated with or without a 2-fold molar excess of PspCN, flowed over; Biacore T200, 25 °C, 10 mM HEPES, 150 mM NaCl, 0.05% P20; 1:1 steady-state model; three experiments on different chips", "conditions": "both partners purified", "remark": "listed apart in the source"}}, "note": "Residue numbers refer to the chain shown, from its start. In names and notes the source's numbering stands. Several values for one entry are separate records, joined by “and”; a condition that tells them apart may be missing. Identical values can stand only once.", "data": [{"binder": "B1", "values": [{"measurement": "Kd", "setting": "C3b [1]", "result": "1000 to 1300", "unit": "nM"}]}, {"binder": "B2", "values": [{"measurement": "Kd", "setting": "C3b [2]", "result": "830 nM and 860 nM"}]}, {"binder": "B3", "values": [{"measurement": "Kd", "setting": "C3b [2]", "result": 270, "unit": "nM"}]}, {"binder": "B4", "values": [{"measurement": "Kd", "setting": "C3b [1]", "result": 1000, "unit": "nM"}, {"measurement": "Kd", "setting": "C3b [2]", "result": "1200 nM and 1800 nM"}]}]}
